Kd and stoichiometry N data for 4 substances are collected here from PMC8318918.

For orientation: Kd means a measure of binding affinity in units of concentration. Broadly, the stoichiometry N is a count of units in the complex or per binding partner.

The target of assay [1] is His-tagged LigIIIβ full length (1–846) (human). Briefly: SPR. In general terms: SPR reads the build-up and loss of mass on a sensor chip optically.
Assay [2] addresses His-tagged XRCC1, insect-cell expressed (human) (UniProt P18887). The experiment in a line: co-purification after co-expression.
Assay [3] concerns the target His-tagged LigIIIα (full-length DNA ligase IIIα), co-expressed with TDP1 in insect cells (human). Briefly: co-purification after co-expression.
The target of assay [4] is LigIIIα co-expressed with His-tagged XRCC1 and TDP1 in insect cells (human). Briefly: co-purification after co-expression.
In a further assay the target is LigIII_(170–755) (human). Briefly: SEC-MALS. (In general: SEC sorts molecules by how far they enter the pores of the column.)

Chain of UniProt P18887 (P18887 whole entry): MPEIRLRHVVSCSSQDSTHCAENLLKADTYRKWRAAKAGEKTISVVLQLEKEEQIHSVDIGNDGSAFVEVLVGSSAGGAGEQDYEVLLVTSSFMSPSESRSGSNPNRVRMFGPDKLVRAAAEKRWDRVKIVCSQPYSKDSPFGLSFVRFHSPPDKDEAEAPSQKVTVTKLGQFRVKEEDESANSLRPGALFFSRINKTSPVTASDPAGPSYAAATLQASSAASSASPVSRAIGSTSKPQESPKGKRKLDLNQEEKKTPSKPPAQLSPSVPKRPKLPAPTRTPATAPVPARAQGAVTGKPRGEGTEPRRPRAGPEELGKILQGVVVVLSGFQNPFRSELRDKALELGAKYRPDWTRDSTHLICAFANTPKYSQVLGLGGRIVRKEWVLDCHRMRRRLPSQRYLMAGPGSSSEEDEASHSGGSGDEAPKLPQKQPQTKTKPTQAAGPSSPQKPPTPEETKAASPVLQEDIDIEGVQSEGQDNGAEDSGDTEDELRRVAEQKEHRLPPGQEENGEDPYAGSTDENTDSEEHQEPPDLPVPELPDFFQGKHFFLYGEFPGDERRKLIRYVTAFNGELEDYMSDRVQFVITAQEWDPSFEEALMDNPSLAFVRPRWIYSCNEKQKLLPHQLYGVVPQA

In turn, “TDP1-S81A, insect-cell expressed, phosphorylated (from UniProt Q9NUW8 1-608) (enzyme)” gave a Kd in assay [1] of 5.3 nM.

“LigIIIα co-expressed with His-tagged XRCC1 and TDP1 in insect cells (enzyme)” came in with a stoichiometry N in assay [2] of 1.

On to “Flag-tagged TDP1 (tyrosyl DNA phosphodiesterase 1), insect-cell expressed, phosphorylated (from UniProt Q9NUW8 1-608) (enzyme)”, for which the stoichiometry N (in assay [3]; in assay [4]; with LigIII_(170–755) (human)) was 1 throughout. In assay [1], the Kd amounted to 5.1 nM.

In assay [1], “TDP1-S81E, insect-cell expressed, phosphorylated (from UniProt Q9NUW8 1-608) (enzyme)” came in with a Kd of 8.8 nM.
